Data taken from patent US20250026791A1, “CYCLIC PEPTIDE CYCLIZED IN AROMATIC NUCLEOPHILIC SUBSTITUTION REACTION, AND PEPTIDE LIBRARY, PRODUCTION METHOD, AND SCREENING METHOD FOR SAME” (UNIVERSITY OF YAMANASHI, priority 2021, published 2025).
*1 amine or outer side, *2 acyl side, *3 side chain or, on linkers, in order; H or OH if unused. Where no end group is shown, it is not given here. The star is where a group is joined. Lys(Biotin) = O=C(CCCC[C@@H]1SC[C@@H]2NC(=O)N[C@@H]21)NCCCC[C@H](N[*:1])C(=O)[*:2]; F5Ph = Fc1c(F)c(F)c(*)c(F)c1F; FNO2Ph = not defined here; Ahx = NCCCCCC(=O)O

Tests used:
Assay type in all cases: binding
[1] = test system: human IL-5; experiment: Collection rate of cDNA/mRNA presenting cyclized peptide against IL-5; details: compared with IL-5 non-immobilized beads (FIGS. 29 and 30)
Protocol: We checked whether the screening in Experimental Example 2 is applicable to compounds other than human PCSK9. Screening was performed for peptides that bind to human IL-5 as compounds other than human PCSK9.
Each collection rate of cDNA/mRNA presenting FNO2Ph cyclized peptide with the amino acid sequence of SEQ ID: 66 (hereafter referred to as Peptide 4) and cDNA/mRNA presenting F5Ph cyclized peptide with the amino acid sequence of SEQ ID: 69 (hereafter referred to as Peptide 5) against IL-5 was determined. IL-5 non-immobilized beads were used as a negative control. […] From the above, it was possible to screen for human IL-5 which is a compound other than human PCSK9.

[2] = molecular target: T1, PCSK9 (Homo sapiens, UniProt Q8NBP7); experiment: HRP-labeled peptide pulled down with PCSK9-immobilized beads, chemiluminescence detection; details: without presentation by cDNA-mRNA dimer, FIGS. 16, 17, 25
Protocol: Peptide 1-1 and Peptide 2-1 were labeled via horseradish peroxidase (HRP)-labeled streptavidin. Each peptide of HRP-labeled Peptide 1-1 and Peptide 2-1 was pulled down with PCSK9-immobilized beads. HRP substrate was added to PCSK9-immobilized beads and chemiluminescence was detected using LuminoGraph III (ATTO).
The PCSK9 binding activity of HRP-labeled Peptide 1-1 (monomer) and the dimer of Peptide 1-1 (Peptide A) were analyzed by PCSK9 pull-down and chemiluminescence detection.
Peptide C was labeled via HRP-labeled streptavidin. Based on the same method as in Experimental Example 7, the PCSK9 binding activity of HRP-labeled Peptide C was analyzed by PCSK9 pulldown and chemiluminescence detection.

[3] = molecular target: T1, PCSK9; experiment: Collection rate of cDNA/mRNA presenting cyclized peptide against PCSK9-immobilized beads; details: for collection rate against PCSK9, Peptide 2 (WT) versus Peptide 3 (C17S): FIG. 13, C17 replaced with serine
Protocol: Site-specific biotinylated human PCSK9 was immobilized on streptavidin-modified magnetic beads. Fc fusion protein of human PCSK9 was immobilized on protein A-modified magnetic beads. Immobilization of PCSK9 was confirmed by sodium dodecyl sulfate polyacrylamide gel electrophoresis and staining with Coomassie brilliant blue.
Each of the mRNA-presenting FNO2Ph and F5Ph cyclized peptide libraries was incubated with PCSK9-immobilized streptavidin-modified beads as positive selection. After removal of the supernatant, the beads were washed with HBS-T. cDNA encoding the peptide binding to the PCSK9-immobilized beads was PCR amplified with Taq DNA polymerase. The amplified PCR product was used for the next round of SELEX.
After the positive selection, cDNA encoding peptides that bind to PCSK9 immobilized beads was amplified by PCR and quantified by qPCR using SYBR green.
Each collection rate of the cDNA/mRNA presenting FNO2Ph cyclized peptide with the amino acid sequence of SEQ ID: 4 (hereafter referred to as Peptide 1) and the cDNA/mRNA presenting F5Ph cyclized peptide with the amino acid sequence of SEQ ID: 14 (hereafter referred to as Peptide 2) against PCSK9 was determined. […] beads were used as negative controls.
Peptide 3 (SEQ ID: 27) was prepared by replacing C17 in Peptide 2 (F5Ph is the first amino acid) with serine. Each collection rate of Peptide 2 (WT) and Peptide 3 (C17S) against PCSK9 was measured (FIG. 13).

[4] = molecular target: His-tagged PCSK9 (Homo sapiens, UniProt Q8NBP7); experiment: His-tagged PCSK9 (HRP-conjugated anti-His-tag antibody) pulled down with peptide-immobilized streptavidin beads, chemiluminescence detection; details: peptide on streptavidin beads pulls down His-tagged PCSK9; FIGS. 18 and 19
Protocol: Each of Peptide 1-1 and peptide 2-1 was conjugated to streptavidin beads. His-tagged PCSK9 was labeled via HRP-conjugated anti-His-tagged antibody. The complex of PCSK9 and HRP was pulled down with Peptide 1-1 or Peptide 2-1 immobilized beads. HRP substrates were added to the peptide-immobilized beads and chemiluminescence was detected using LuminoGraph III (ATTO).

T1 sequence (Q8NBP7 153-692): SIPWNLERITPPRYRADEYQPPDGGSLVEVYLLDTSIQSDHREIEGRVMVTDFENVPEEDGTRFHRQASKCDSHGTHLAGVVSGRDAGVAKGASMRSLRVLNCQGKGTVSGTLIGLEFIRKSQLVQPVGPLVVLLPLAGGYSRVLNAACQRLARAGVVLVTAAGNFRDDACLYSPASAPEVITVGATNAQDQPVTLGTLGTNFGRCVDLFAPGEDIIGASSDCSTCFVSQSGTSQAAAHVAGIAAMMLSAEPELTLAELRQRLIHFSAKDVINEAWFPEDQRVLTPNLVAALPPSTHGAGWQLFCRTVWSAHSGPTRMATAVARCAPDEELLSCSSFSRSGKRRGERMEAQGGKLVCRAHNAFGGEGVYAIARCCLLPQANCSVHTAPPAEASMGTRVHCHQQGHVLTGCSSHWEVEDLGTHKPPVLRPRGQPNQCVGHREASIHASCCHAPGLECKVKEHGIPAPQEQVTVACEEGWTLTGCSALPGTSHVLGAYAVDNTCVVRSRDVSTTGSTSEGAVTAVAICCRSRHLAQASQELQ
Sequence of human IL-5 (P05113 20-134): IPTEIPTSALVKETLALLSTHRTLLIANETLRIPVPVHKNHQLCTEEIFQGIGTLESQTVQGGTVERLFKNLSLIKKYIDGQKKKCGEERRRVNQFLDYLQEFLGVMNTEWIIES
Sequence of His-tagged PCSK9 (Q8NBP7 153-692): as the sequence (Q8NBP7 153-692) above

Row | Substance | collection rate against IL-5 [1] | PCSK9 binding activity [2] | collection rate against PCSK9, Peptide 2 (WT) versus Peptide 3 (C17S) [3] | also measured
1 | Peptide 4: FNO2Ph cyclized peptide with amino acid sequence of SEQ ID: 66 (LLLMWCAVLVVLRWRRR), cDNA/mRNA presented (bridge (positions not given here) via FNO2Ph; reading uncertain; also: FNO2Ph cyclization, places not given here) | higher than those of the negative control | – | – | –
2 | Peptide C: FNO2Ph cyclized peptide, SEQ ID: 35: two methionines of SEQ ID: 28 replaced with isoleucine; three Ahx spacer, biotinylated lysine (RWRFYSGIRNREIDC-{Ahx-Ahx-Ahx-Lys(Biotin)-NH2}; not fully specified (N-terminus, bridges); also: FNO2Ph cyclization, places not given here) | – | have binding activity for PCSK9 | – | –
3 | Peptide 2: F5Ph cyclized peptide with amino acid sequence of SEQ ID: 14 (RGHCWLYVYFPVRSLC), cDNA/mRNA presented (F5Ph-RGHCWLYVYFPVRSLC; thioether (positions not given here); not fully specified (bridges)) | – | – | C17 in Peptide 2 was found to be critical for Peptide 2 binding to PCSK9 | collection rate against PCSK9 ([3]; cDNA/mRNA presenting peptide, compared with negative control beads (FIGS. 10 and 11)): higher than that of the negative control
4 | Peptide 2-1: chemically synthesized FNO2Ph cyclized peptide (as printed), SEQ ID: 14, C-terminal spacer of three Ahx and biotinylated lysine (RGHCWLYVYFPVRSLC-{Ahx-Ahx-Ahx-K(biotin)-NH2}; thioether (positions not given here); not fully specified (N-terminus, bridges); also: FNO2Ph cyclization, places not given here) | – | have binding activity to PCSK9 | – | PCSK9 binding activity [4]: have binding activity to PCSK9
5 | Peptide 3: SEQ ID: 27; C17 in Peptide 2 (F5Ph is the first amino acid) replaced with serine (F5Ph-RGHCWLYVYFPVRSLS; thioether (positions not given here); not fully specified (bridges)) | – | – | C17 in Peptide 2 was found to be critical for Peptide 2 binding to PCSK9 | –
6 | Peptide 5: F5Ph cyclized peptide with amino acid sequence of SEQ ID: 69 (HSPFTFQHC), cDNA/mRNA presented (bridge (positions not given here) via F5Ph; also: F5Ph cyclization, places not given here) | higher than those of the negative control | – | – | –
